Sequences and labels used below:
B1: v38740 (other)
heavy 1: EVQLVESGGGLVQPGGSLRLSCAASGVTFNYYGMSWIRQAPGKGLEWVASITSSGGRIYYPDSVKGRFTISRENTQKTLYLQMNSLRAEDTAVYYCTLDGRDGWVAYWGQGTLVTVSSASTKGPSVFPLAPSSKSTSGGTAALGCLVKDYFPEPVTVSWNSGALTSGVHTFPAVLQSSGLYSLSSVVTVPSSSLGTQTYICNVNHKPSNTKVDKKVEPKSCDKTHTCPPCPAPEAAGGPSVFLFPPKPKDTLMISRTPEVTCVVVSVSHEDPEVKFNWYVDGVEVHNAKTKPREEQYNSTYRVVSVLTVLHQDWLNGKEYKCKVSNKALPAPIEKTISKAKGQPREPQVYVYPPSRDELTKNQVSLTCLVKGFYPSDIAVEWESNGQPENNYKTTPPVLDSDGSFALVSKLTVDKSRWQQGNVFSCSVMHEALHNHYTQKSLSLSPGGGGGSGDRPWNPPTFSPALLVVTEGDNATFTCSFSNTSESFVLNWYRMSPSNQTDKLAAFPEDRSQPGQDARFRVTQLPNGRDFHMSVVRARRNDSGTYLCGAISLAPKAQIKESLRAELRVTE
light: NFMLTQPHSVSESPGKTVTISCKRNTGNIGSNYVNWYQQHEGSSPTTIIYRNDKRPDGVSDRFSGSIDRSSKSASLTISNLKTEDEADYFCQSYSSGFIFGGGTKLTVLGQPKAAPSVTLFPPSSEELQANKATLVCLISDFYPGAVTVAWKADSSPVKAGVETTTPSKQSNNKYAASSYLSLTPEQWKSHRSYSCQVTHEGSTVEKTVAPTECS
heavy 2: QVQLVESGGGLVQPGGSLRLSCSVSGIDLSSNPMIWVRQAPGKGLQYIGIIDTDGSTYYADWAKGRFTISKDSTTVYLQINSPRAEDTAVYYCARRLHGSSNGYYDDLWGQGTLVTVSSGGGGSGGGGSGGGGSGGGGSDGQMTQSPSSVSASVGDRVTITCQASQSIYSYLSWYQQKPGQRPKLLIYKASTLASGVPSRFSGSGSGTDFTLTISSVQPEDFATYYCQQGYTVTNVDKNTFGGGTKVEIKAAEPKSSDKTHTCPPCPAPEAAGGPSVFLFPPKPKDTLMISRTPEVTCVVVSVSHEDPEVKFNWYVDGVEVHNAKTKPREEQYNSTYRVVSVLTVLHQDWLNGKEYKCKVSNKALPAPIEKTISKAKGQPREPQVYVLPPSRDELTKNQVSLLCLVKGFYPSDIAVEWESNGQPENNYLTWPPVLDSDGSFFLYSKLTVDKSRWQQGNVFSCSVMHEALHNHYTQKSLSLSPG
notes: CD3 Fab x Cldn18.2 scFv Fc, wildtype (WT) PD-1 attached to HC1 (C-term)
B2: v38744 (other)
heavy 1: EVQLVESGGGLVQPGGSLRLSCAASGVTFNYYGMSWIRQAPGKGLEWVASITSSGGRIYYPDSVKGRFTISRENTQKTLYLQMNSLRAEDTAVYYCTLDGRDGWVAYWGQGTLVTVSSASTKGPSVFPLAPSSKSTSGGTAALGCLVKDYFPEPVTVSWNSGALTSGVHTFPAVLQSSGLYSLSSVVTVPSSSLGTQTYICNVNHKPSNTKVDKKVEPKSCDKTHTCPPCPAPEAAGGPSVFLFPPKPKDTLMISRTPEVTCVVVSVSHEDPEVKFNWYVDGVEVHNAKTKPREEQYNSTYRVVSVLTVLHQDWLNGKEYKCKVSNKALPAPIEKTISKAKGQPREPQVYVYPPSRDELTKNQVSLTCLVKGFYPSDIAVEWESNGQPENNYKTTPPVLDSDGSFALVSKLTVDKSRWQQGNVFSCSVMHEALHNHYTQKSLSLSPGGGGGSGQVQLVESGGGLVQPGGSLRLSCSVSGIDLSSNPMIWVRQAPGKGLQYIGIIDTDGSTYYADWAKGRFTISKDSTTVYLQINSPRAEDTAVYYCARRLHGSSNGYYDDLWGQGTLVTVSSGGGGSGGGGSGGGGSGGGGSDGQMTQSPSSVSASVGDRVTITCQASQSIYSYLSWYQQKPGQRPKLLIYKASTLASGVPSRFSGSGSGTDFTLTISSVQPEDFATYYCQQGYTVTNVDKNTFGGGTKVEIK
light: NPPTFSPALLVVTEGDNATFTCSFSNTSESFVLNWYRMSPSNQTDKLAAFPEDRSQPGQDARFRVTQLPNGRDFHMSVVRARRNDSGTYLCGAISLAPKAQIKESLRAELRVTEGGGGSGNFMLTQPHSVSESPGKTVTISCKRNTGNIGSNYVNWYQQHEGSSPTTIIYRNDKRPDGVSDRFSGSIDRSSKSASLTISNLKTEDEADYFCQSYSSGFIFGGGTKLTVLGQPKAAPSVTLFPPSSEELQANKATLVCLISDFYPGAVTVAWKADSSPVKAGVETTTPSKQSNNKYAASSYLSLTPEQWKSHRSYSCQVTHEGSTVEKTVAPTECS
heavy 2: B1 heavy 2
notes: CD3 Fab with C-term Cldn18.2 scFv x Cldn18.2 scFv Fc with wildtype (WT) PD-1 attached to CD3 LC (N-term)
B3: v38741 (other)
heavy 1: B2 heavy 1
light: NPPTFSPALLVVTEGDNATFTCSFSNTSESFRLVWHRESPGYETDTLASFPEDRSTPLPDARFRVTQLPNGRDFHMSVVRARRNDSGTYVCGAIAFHPVIQIKESLRAELRVTEGGGGSGNFMLTQPHSVSESPGKTVTISCKRNTGNIGSNYVNWYQQHEGSSPTTIIYRNDKRPDGVSDRFSGSIDRSSKSASLTISNLKTEDEADYFCQSYSSGFIFGGGTKLTVLGQPKAAPSVTLFPPSSEELQANKATLVCLISDFYPGAVTVAWKADSSPVKAGVETTTPSKQSNNKYAASSYLSLTPEQWKSHRSYSCQVTHEGSTVEKTVAPTECS
heavy 2: B1 heavy 2
B4: v38743 (other)
heavy 1: B2 heavy 1
light: B2 light with A100L
heavy 2: B1 heavy 2
B5: v37407 (antibody, human IgG1, V domains shown)
VH: QVQLVESGGGLVQPGGSLRLSCSVSGIDLSSNPMIWVRQAPGKGLEYIGIIDTDGSTYYADWAKGRFTISKDSTTVYLQMNSLRAEDTAVYYCARRLHGSSNGYYDDLWGQGTLVTVSS
VL: DGQMTQSPSSVSASVGDRVTITCQASQSIYSYLSWYQQKPGQRPKLLIYKASTLASGVPSRFSGSGSGTDFTLTISSVQPEDFATYYCQQGYTVTNVDKNTFGGGTKVEIK
notes: Humanized, recombinant human IgG1-based monoclonal antibody; also called H4-L4
B6: v37409 (antibody, human IgG1, V domains shown)
VH: QVQLVESGGGLVQPGGSLRLSCSVSGIDLSSNPMIWVRQAPGKGLEYIGIIDTDGSTYYADWAKGRFTISKDSSKNTVYLQMNSLRAEDTAVYYCARRLHGSSNGYYDDLWGQGTLVTVSS
VL: B5 VL
notes: Humanized, recombinant human IgG1-based monoclonal antibody; also called H2-L4
B7: v37410 (antibody, human IgG1, V domains shown)
VH: B6 VH with E46Q
VL: B5 VL
notes: Humanized, recombinant human IgG1-based monoclonal antibody; also called H3-L4
B8: v37408 (antibody, human IgG1, V domains shown)
VH: B5 VH
VL: B5 VL with F83A, I110V
notes: Humanized, recombinant human IgG1-based monoclonal antibody; also called H4-L2
B9: v37411 (antibody, human IgG1, V domains shown)
VH: B5 VH with E46Q, M80I, L83P
VL: B5 VL
notes: Humanized, recombinant human IgG1-based monoclonal antibody; also called H5-L4

From patent US20250019440A1 (Zymeworks, published 2025) come the findings set out here.

As a reminder, the Kd is the constant that tells how readily two partners part at equilibrium. Usually EC50 stands for the concentration giving half of the maximal effect.

Positions count from the first letter of the chain named.

T1 sequence (P56856 whole entry): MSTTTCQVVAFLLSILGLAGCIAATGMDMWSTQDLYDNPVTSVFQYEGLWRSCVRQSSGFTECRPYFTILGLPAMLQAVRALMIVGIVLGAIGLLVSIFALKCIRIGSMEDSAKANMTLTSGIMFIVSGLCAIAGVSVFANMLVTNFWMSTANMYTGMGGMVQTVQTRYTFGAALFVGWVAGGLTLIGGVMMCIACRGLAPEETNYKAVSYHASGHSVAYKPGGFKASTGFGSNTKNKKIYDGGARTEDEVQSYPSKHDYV

For one assay, the target named is Human CD3 (recombinant) (human). The assay is described as follows: SPR, CD3 amine-coupled, variant as analyte, 1:1 model. In general terms: In SPR one partner is held on a chip, and binding of the other changes the refractive index at the surface.
Sequence of Human CD3 (recombinant) (human) (chain, as listed by the source): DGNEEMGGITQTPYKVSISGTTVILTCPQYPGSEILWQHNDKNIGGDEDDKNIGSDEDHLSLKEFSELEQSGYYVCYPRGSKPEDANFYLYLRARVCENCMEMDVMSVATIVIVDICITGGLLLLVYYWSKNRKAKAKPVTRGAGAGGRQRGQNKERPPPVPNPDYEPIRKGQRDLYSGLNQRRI
As to B1, the Kd amounted to 30 nM.

For B2, the equilibrium dissociation constant (Kd) was found to be 190 nM.

For B3, the Kd worked out at 18 nM.

In the case of B4, the Kd turned out to be 120 nM.

The next assay concerns the target T1, Human CLDN18.1 (human, UniProt P56856 1-261).
T1 construct: On transfected HEK293-6E cells
The assay is described as follows: FACS, Expi293F supernatants on transfected HEK293-6E cells. (In general: In flow cytometry, cells or beads pass a laser one at a time.)
On to B5, for which the binding result is “no binding”.

As to B6, the binding result is listed as “no binding”.

On to B7, for which the binding result is on record as “no binding”.

Consider B8, for which the binding result was “no binding”.

For the molecule B9, the binding result is on record as “no binding”.

Another assay deals with T2, Human PD-L1 (human, UniProt Q9NZQ7 19-239).
T2 construct: Amine-coupled to a CM5 chip for SPR; also called recombinant human PD-L1
T2 sequence (Q9NZQ7 19-239 limits assumed): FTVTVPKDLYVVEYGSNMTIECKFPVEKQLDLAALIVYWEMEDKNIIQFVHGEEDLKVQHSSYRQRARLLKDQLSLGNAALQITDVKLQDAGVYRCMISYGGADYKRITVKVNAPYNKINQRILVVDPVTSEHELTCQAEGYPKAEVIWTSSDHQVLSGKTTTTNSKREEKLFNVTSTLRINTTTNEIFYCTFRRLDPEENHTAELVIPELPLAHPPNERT
The assay is described as follows: SPR, PD-L1 amine-coupled, variant as analyte, 1:1 model.
B1: the dissociation constant Kd turned out to be 510 nM.

Consider B2, for which the affinity, expressed as Kd, was 1900 nM.

Regarding B3, the Kd turned out to be 95 nM.

In turn, B4 had a dissociation constant (Kd) of 220 nM.

The next assay has as its target T3, Human CLDN18.2 (human).
T3 construct: On transfected HEK293-6E cells; also called Claudin18.2
The assay is described as follows: FACS on transfected HEK293-6E cells, 4 parameter logistic fit.
The molecule B5 showed a Bmax of 2040 and an EC50 of 1.54 nM.

Molecule B6 registered a Bmax of 1960 and a half-maximal effective concentration (EC50) of 1.22 nM.

With B7, the Bmax worked out at 1910 and the EC50 was found to be 0.97 nM.

B8 displayed a Bmax of 2190 and a concentration for a half-maximal effect (EC50) of 1.87 nM.

B9: the Bmax stood at 2170 and the concentration giving a half-maximal response (EC50) worked out at 1.05 nM.

In a further assay the target is T4, Cynomolgus monkey CLDN18 (cynomolgus monkey).
T4 construct: On transfected HEK293-6E cells; also called Cyno CLDN18; cynomologus monkey CLDN18.2 ortholog
T4 chain: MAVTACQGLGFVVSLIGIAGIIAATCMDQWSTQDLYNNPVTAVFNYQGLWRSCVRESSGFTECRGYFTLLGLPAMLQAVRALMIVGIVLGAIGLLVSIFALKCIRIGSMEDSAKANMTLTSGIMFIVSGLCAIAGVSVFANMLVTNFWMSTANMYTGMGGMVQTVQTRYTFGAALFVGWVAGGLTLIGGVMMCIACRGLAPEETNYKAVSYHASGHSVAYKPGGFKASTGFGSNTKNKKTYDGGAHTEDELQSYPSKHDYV
The assay is described as above.
For B5, the Bmax was determined as 1410 and a half-maximal response (EC50) required 0.24 nM.

For the molecule B6, the Bmax is 1500 and the 50% effective concentration (EC50) is 0.35 nM.

Turning to B7, the Bmax stood at 1500 and the EC50 was found to be 0.31 nM.

In the case of B8, the Bmax was determined as 1520 and a half-maximal effect (EC50) was put at 0.36 nM.

For B9, the Bmax stood at 1730 and the EC50 was 0.37 nM.

The target of a further assay is T5, Mouse CLDN18 A2.1 (mouse, UniProt P56857 10-264).
T5 construct: On transfected HEK293-6E cells; also called Mouse CLDN18 2.1; mouse CLDN18.2 ortholog
T5 chain: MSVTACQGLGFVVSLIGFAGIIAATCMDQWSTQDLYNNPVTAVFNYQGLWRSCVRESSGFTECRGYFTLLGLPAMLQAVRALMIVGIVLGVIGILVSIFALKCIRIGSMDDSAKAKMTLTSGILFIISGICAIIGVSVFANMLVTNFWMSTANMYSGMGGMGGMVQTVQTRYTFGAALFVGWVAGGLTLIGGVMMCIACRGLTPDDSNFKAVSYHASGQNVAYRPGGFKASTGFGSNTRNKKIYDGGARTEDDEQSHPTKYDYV
The description is as above.
B5 came in with a Bmax of 1540 and an EC50 of 0.8 nM.

Consider B6, for which the Bmax stood at 1530 and it took 0.89 nM to reach a half-maximal effect (EC50).

For the molecule B7, the Bmax was 1690 and the concentration giving a half-maximal response (EC50) stood at 1.02 nM.

Turning to B8, the Bmax is 1920 and the EC50 was determined as 2.65 nM.

Take B9: the Bmax was 1790 and the midpoint of the response, the EC50, lay at 1.03 nM.
